# Patent US20200165325A1
# How the values were obtained:
# [1] = molecular target: HIV-1 Env of strain 3016.v5.c45 (HIV-1)
# [2] = molecular target: HIV-1 Env of strain Ce0682_E4 (HIV-1)
# [3] = molecular target: HIV-1 Env of strain Du172.17 (HIV-1)
# [4] = molecular target: HIV-1 Env of strain C1080.c03 (HIV-1)
# [5] = molecular target: HIV-1 Env of strain Ce2060_G9 (HIV-1)
# [6] = molecular target: HIV-1 Env of strain X1193_c1 (HIV-1)
# [7] = molecular target: HIV-1 Env of strain 89-F1_2_25 (HIV-1)
# [8] = molecular target: HIV-1 Env of strain CAAN5342.A2 (HIV-1)
# [9] = molecular target: HIV-1 Env of strain AC10.0.29 (HIV-1)
# [10] = molecular target: HIV-1 Env of strain 3301.v1.c24 (HIV-1)
# [11] = molecular target: HIV-1 Env of strain 0815.v3.c3 (HIV-1)
# [12] = molecular target: HIV-1 Env of strain 6811.v7.c18 (HIV-1)
# [13] = molecular target: HIV-1 Env of strain 3415.v1.c1 (HIV-1)
# [14] = molecular target: HIV-1 Env of strain PVO.4 (HIV-1)
# [15] = molecular target: HIV-1 Env of strain THRO4156.18 (HIV-1)
# [16] = molecular target: HIV-1 Env of strain 6540.v4.c1 (HIV-1)
# [17] = molecular target: HIV-1 Env of strain CNE20 (HIV-1)
# [18] = molecular target: HIV-1 Env of strain RHPA4259.7 (HIV-1)
# [19] = molecular target: HIV-1 Env of strain REJO4541.67 (HIV-1)
# [20] = molecular target: HIV-1 Env of strain HIV-16845-2.22 (HIV-1)
# [21] = molecular target: HIV-1 Env of strain ZM135M.PL10a (HIV-1)
# [22] = molecular target: HIV-1 Env of strain Q461.e2 (HIV-1)
# [23] = molecular target: HIV-1 Env of strain T278-50 (HIV-1)
# [24] = molecular target: HIV-1 Env of strain Q23.17 (HIV-1)
# [25] = molecular target: HIV-1 Env of strain Q259.d2.17 (HIV-1)
# [26] = molecular target: HIV-1 Env of strain CNE58 (HIV-1)
# [27] = molecular target: HIV-1 Env of strain ZM233M.PB6 (HIV-1)
# [28] = molecular target: HIV-1 Env of strain Ce1176_A3 (HIV-1)
# [29] = molecular target: HIV-1 Env of strain 211-9 (HIV-1)
# [30] = molecular target: HIV-1 Env of strain 1006_11_C3_1601 (HIV-1)
# [31] = molecular target: HIV-1 Env of strain TRJO4551.58 (HIV-1)
# [32] = molecular target: HIV-1 Env of strain ZM197M.PB7 (HIV-1)
# [33] = molecular target: HIV-1 Env of strain C3347.c11 (HIV-1)
# [34] = molecular target: HIV-1 Env of strain T251-18 (HIV-1)
# [35] = molecular target: HIV-1 Env of strain ZM214M.PL15 (HIV-1)
# [36] = molecular target: HIV-1 Env of strain 0330.v4.c3 (HIV-1)
# [37] = molecular target: HIV-1 Env of strain C2101.c01 (HIV-1)
# [38] = molecular target: HIV-1 Env of strain 703357.C02 (HIV-1)
# [39] = molecular target: HIV-1 Env of strain 6480.v4.c25 (HIV-1)
# [40] = molecular target: HIV-1 Env of strain T257-31 (HIV-1)
# [41] = molecular target: HIV-1 Env of strain R2184.c04 (HIV-1)
# [42] = molecular target: HIV-1 Env of strain ZM249M.PL1 (HIV-1)
# [43] = molecular target: HIV-1 Env of strain P1981_C5_3 (HIV-1)
# [44] = molecular target: HIV-1 Env of strain 3103.v3.c10 (HIV-1)
# [45] = molecular target: HIV-1 Env of strain CAP45.2.00.G3 (HIV-1)
# [46] = molecular target: HIV-1 Env of strain X2131_C1_B5 (HIV-1)
# [47] = molecular target: HIV-1 Env of strain 231965.c01 (HIV-1)
# [48] = molecular target: HIV-1 Env of strain 6545.v4.c1 (HIV-1)
# [49] = molecular target: HIV-1 Env of strain ZM109F.PB4 (HIV-1)
# [50] = molecular target: HIV-1 Env of strain Ce703010054_2A2 (HIV-1)
# [51] = molecular target: HIV-1 Env of strain WEAU_d15_410_787 (HIV-1)
# [52] = molecular target: HIV-1 Env of strain 3718.v3.c11 (HIV-1)
# [53] = molecular target: HIV-1 Env of strain CNE17 (HIV-1)
# [54] = molecular target: HIV-1 Env of strain 1054_07_TC4_1499 (HIV-1)
# [55] = molecular target: HIV-1 Env of strain Ce0393_C3 (HIV-1)
# [56] = molecular target: HIV-1 Env of strain T250-4 (HIV-1)
# [57] = molecular target: HIV-1 Env of strain R1166.c01 (HIV-1)
substance,measurement,setting,value
NIH45-46 G54W IgG (antibody),In vitro neutralization IC80,[1],15.4 µg/mL
same,In vitro neutralization IC80,[2],0.039 µg/mL
same,In vitro neutralization IC80,[3],42.9 µg/mL
same,In vitro neutralization IC80,[4],0.91 µg/mL
same,In vitro neutralization IC80,[5],0.042 µg/mL
same,In vitro neutralization IC80,[6],0.009 µg/mL
same,In vitro neutralization IC80,[7],> 50 µg/mL
same,In vitro neutralization IC80,[8],0.21 µg/mL
same,In vitro neutralization IC80,[9],0.63 µg/mL
same,In vitro neutralization IC80,[10],0.004 µg/mL
same,In vitro neutralization IC80,[11],0.003 µg/mL
same,In vitro neutralization IC80,[12],0.033 µg/mL
same,In vitro neutralization IC80,[13],0.023 µg/mL
same,In vitro neutralization IC80,[14],0.16 µg/mL
same,In vitro neutralization IC80,[15],1.81 µg/mL
same,In vitro neutralization IC80,[16],> 50 µg/mL
same,In vitro neutralization IC80,[17],0.48 µg/mL
same,In vitro neutralization IC80,[18],0.007 µg/mL
same,In vitro neutralization IC80,[19],0.013 µg/mL
same,In vitro neutralization IC80,[20],2.1 µg/mL
same,In vitro neutralization IC80,[21],0.16 µg/mL
same,In vitro neutralization IC80,[22],0.091 µg/mL
same,In vitro neutralization IC80,[23],> 50 µg/mL
same,In vitro neutralization IC80,[24],0.03 µg/mL
same,In vitro neutralization IC80,[25],0.014 µg/mL
same,In vitro neutralization IC80,[26],0.05 µg/mL
same,In vitro neutralization IC80,[27],0.11 µg/mL
same,In vitro neutralization IC80,[28],0.45 µg/mL
same,In vitro neutralization IC80,[29],> 50 µg/mL
same,In vitro neutralization IC80,[30],0.008 µg/mL
same,In vitro neutralization IC80,[31],0.05 µg/mL
same,In vitro neutralization IC80,[32],0.18 µg/mL
same,In vitro neutralization IC80,[33],0.028 µg/mL
same,In vitro neutralization IC80,[34],0.92 µg/mL
same,In vitro neutralization IC80,[35],0.15 µg/mL
same,In vitro neutralization IC80,[36],0.11 µg/mL
same,In vitro neutralization IC80,[37],0.17 µg/mL
same,In vitro neutralization IC80,[38],17.6 µg/mL
same,In vitro neutralization IC80,[39],0.021 µg/mL
same,In vitro neutralization IC80,[40],0.45 µg/mL
same,In vitro neutralization IC80,[41],0.036 µg/mL
same,In vitro neutralization IC80,[42],0.007 µg/mL
same,In vitro neutralization IC80,[43],0.07 µg/mL
same,In vitro neutralization IC80,[44],0.56 µg/mL
same,In vitro neutralization IC80,[45],> 50 µg/mL
same,In vitro neutralization IC80,[46],0.24 µg/mL
same,In vitro neutralization IC80,[47],0.035 µg/mL
same,In vitro neutralization IC80,[48],> 50 µg/mL
same,In vitro neutralization IC80,[49],0.07 µg/mL
same,In vitro neutralization IC80,[50],0.077 µg/mL
same,In vitro neutralization IC80,[51],0.003 µg/mL
same,In vitro neutralization IC80,[52],0.04 µg/mL
same,In vitro neutralization IC80,[53],0.127 µg/mL
same,In vitro neutralization IC80,[54],0.165 µg/mL
same,In vitro neutralization IC80,[55],0.089 µg/mL
same,In vitro neutralization IC80,[56],44.9 µg/mL
same,In vitro neutralization IC80,[57],0.51 µg/mL
